Laboratory results published in patent publication US12630600B2 (MEDIMMUNE LIMITED, priority 2022, dated 2026).
Starred links: 1 amine or outer side, 2 acyl side, 3 side chain; linkers in the order of their positions; H or OH if unused. Non-standard residues stand in square brackets, D forms with d. Groups on a side chain read outwards from the residue. No end group written: not given here. *: point of attachment. C20 diacid = O=C(O)CCCCCCCCCCCCCCCCCCC(=O)*; C18 diacid = O=C(O)CCCCCCCCCCCCCCCCC(=O)*; γGlu = O=C(O)[C@H](CCC(=O)[*:2])N[*:1]; αMeF = C[C@](N)(Cc1ccccc1)C(=O)O; AEEA = NCCOCCOCC(=O)O; Aib = CC(C)(N)C(=O)O

B1: Peptide 452 (peptide)
peptide: H[Aib]QGTFTSDVSK[αMeF]LDKK([AEEA-AEEA-γGlu-C20 diacid])RALDFVRWLL[Aib]E-NH2
modifications: N-terminus assumed
SMILES: CC(C)C[C@H](NC(=O)[C@H](C)NC(=O)[C@H](CCCNC(=N)N)NC(=O)[C@H](CCCCNC(=O)COCCOCCNC(=O)COCCOCCNC(=O)CC[C@H](NC(=O)CCCCCCCCCCCCCCCCCCC(=O)O)C(=O)O)NC(=O)[C@H](CCCCN)NC(=O)[C@H](CC(=O)O)NC(=O)[C@H](CC(C)C)NC(=O)[C@](C)(Cc1ccccc1)NC(=O)[C@H](CCCCN)NC(=O)[C@H](CO)NC(=O)[C@@H](NC(=O)[C@H](CC(=O)O)NC(=O)[C@H](CO)NC(=O)[C@@H](NC(=O)[C@H](Cc1ccccc1)NC(=O)[C@@H](NC(=O)CNC(=O)[C@H](CCC(N)=O)NC(=O)C(C)(C)NC(=O)[C@@H](N)Cc1c[nH]cn1)[C@@H](C)O)[C@@H](C)O)C(C)C)C(=O)N[C@@H](CC(=O)O)C(=O)N[C@@H](Cc1ccccc1)C(=O)N[C@H](C(=O)N[C@@H](CCCNC(=N)N)C(=O)N[C@@H](Cc1c[nH]c2ccccc12)C(=O)N[C@@H](CC(C)C)C(=O)N[C@@H](CC(C)C)C(=O)NC(C)(C)C(=O)N[C@@H](CCC(=O)O)C(N)=O)C(C)C
B2: Peptide 456 (peptide)
peptide: H[Aib]QGTFTSDVSK[αMeF]LDRK([AEEA-AEEA-γGlu-C20 diacid])RAQDFVRWLL[Aib]E-NH2
modifications: N-terminus assumed
SMILES: CC(C)C[C@H](NC(=O)[C@H](Cc1c[nH]c2ccccc12)NC(=O)[C@H](CCCNC(=N)N)NC(=O)[C@@H](NC(=O)[C@H](Cc1ccccc1)NC(=O)[C@H](CC(=O)O)NC(=O)[C@H](CCC(N)=O)NC(=O)[C@H](C)NC(=O)[C@H](CCCNC(=N)N)NC(=O)[C@H](CCCCNC(=O)COCCOCCNC(=O)COCCOCCNC(=O)CC[C@H](NC(=O)CCCCCCCCCCCCCCCCCCC(=O)O)C(=O)O)NC(=O)[C@H](CCCNC(=N)N)NC(=O)[C@H](CC(=O)O)NC(=O)[C@H](CC(C)C)NC(=O)[C@](C)(Cc1ccccc1)NC(=O)[C@H](CCCCN)NC(=O)[C@H](CO)NC(=O)[C@@H](NC(=O)[C@H](CC(=O)O)NC(=O)[C@H](CO)NC(=O)[C@@H](NC(=O)[C@H](Cc1ccccc1)NC(=O)[C@@H](NC(=O)CNC(=O)[C@H](CCC(N)=O)NC(=O)C(C)(C)NC(=O)[C@@H](N)Cc1c[nH]cn1)[C@@H](C)O)[C@@H](C)O)C(C)C)C(C)C)C(=O)N[C@@H](CC(C)C)C(=O)NC(C)(C)C(=O)N[C@@H](CCC(=O)O)C(N)=O
B3: Peptide 455 (peptide)
peptide: H[Aib]QGTFTSDVSK[αMeF]LDKK([AEEA-AEEA-γGlu-γGlu-C20 diacid])RAQDFVRWLL[Aib]E-NH2
modifications: N-terminus assumed
SMILES: CC(C)C[C@H](NC(=O)[C@H](Cc1c[nH]c2ccccc12)NC(=O)[C@H](CCCNC(=N)N)NC(=O)[C@@H](NC(=O)[C@H](Cc1ccccc1)NC(=O)[C@H](CC(=O)O)NC(=O)[C@H](CCC(N)=O)NC(=O)[C@H](C)NC(=O)[C@H](CCCNC(=N)N)NC(=O)[C@H](CCCCNC(=O)COCCOCCNC(=O)COCCOCCNC(=O)CC[C@H](NC(=O)CC[C@H](NC(=O)CCCCCCCCCCCCCCCCCCC(=O)O)C(=O)O)C(=O)O)NC(=O)[C@H](CCCCN)NC(=O)[C@H](CC(=O)O)NC(=O)[C@H](CC(C)C)NC(=O)[C@](C)(Cc1ccccc1)NC(=O)[C@H](CCCCN)NC(=O)[C@H](CO)NC(=O)[C@@H](NC(=O)[C@H](CC(=O)O)NC(=O)[C@H](CO)NC(=O)[C@@H](NC(=O)[C@H](Cc1ccccc1)NC(=O)[C@@H](NC(=O)CNC(=O)[C@H](CCC(N)=O)NC(=O)C(C)(C)NC(=O)[C@@H](N)Cc1c[nH]cn1)[C@@H](C)O)[C@@H](C)O)C(C)C)C(C)C)C(=O)N[C@@H](CC(C)C)C(=O)NC(C)(C)C(=O)N[C@@H](CCC(=O)O)C(N)=O
B4: Peptide 454 (peptide)
peptide: H[Aib]QGTFTSDVSK[αMeF]LDKK([AEEA-AEEA-γGlu-C20 diacid])RAQDFVRWLEA[Aib]G-NH2
modifications: N-terminus assumed
SMILES: CC(C)C[C@H](NC(=O)[C@H](Cc1c[nH]c2ccccc12)NC(=O)[C@H](CCCNC(=N)N)NC(=O)[C@@H](NC(=O)[C@H](Cc1ccccc1)NC(=O)[C@H](CC(=O)O)NC(=O)[C@H](CCC(N)=O)NC(=O)[C@H](C)NC(=O)[C@H](CCCNC(=N)N)NC(=O)[C@H](CCCCNC(=O)COCCOCCNC(=O)COCCOCCNC(=O)CC[C@H](NC(=O)CCCCCCCCCCCCCCCCCCC(=O)O)C(=O)O)NC(=O)[C@H](CCCCN)NC(=O)[C@H](CC(=O)O)NC(=O)[C@H](CC(C)C)NC(=O)[C@](C)(Cc1ccccc1)NC(=O)[C@H](CCCCN)NC(=O)[C@H](CO)NC(=O)[C@@H](NC(=O)[C@H](CC(=O)O)NC(=O)[C@H](CO)NC(=O)[C@@H](NC(=O)[C@H](Cc1ccccc1)NC(=O)[C@@H](NC(=O)CNC(=O)[C@H](CCC(N)=O)NC(=O)C(C)(C)NC(=O)[C@@H](N)Cc1c[nH]cn1)[C@@H](C)O)[C@@H](C)O)C(C)C)C(C)C)C(=O)N[C@@H](CCC(=O)O)C(=O)N[C@@H](C)C(=O)NC(C)(C)C(=O)NCC(N)=O
B5: Peptide 462 (peptide)
peptide: H[Aib]QGTFTSDVSK[αMeF]LDTK([AEEA-AEEA-γGlu-C18 diacid])RARDFVQWLLEAG-OH
modifications: N-terminus assumed
SMILES: CC(C)C[C@H](NC(=O)[C@H](CC(C)C)NC(=O)[C@H](Cc1c[nH]c2ccccc12)NC(=O)[C@H](CCC(N)=O)NC(=O)[C@@H](NC(=O)[C@H](Cc1ccccc1)NC(=O)[C@H](CC(=O)O)NC(=O)[C@H](CCCNC(=N)N)NC(=O)[C@H](C)NC(=O)[C@H](CCCNC(=N)N)NC(=O)[C@H](CCCCNC(=O)COCCOCCNC(=O)COCCOCCNC(=O)CC[C@H](NC(=O)CCCCCCCCCCCCCCCCC(=O)O)C(=O)O)NC(=O)[C@@H](NC(=O)[C@H](CC(=O)O)NC(=O)[C@H](CC(C)C)NC(=O)[C@](C)(Cc1ccccc1)NC(=O)[C@H](CCCCN)NC(=O)[C@H](CO)NC(=O)[C@@H](NC(=O)[C@H](CC(=O)O)NC(=O)[C@H](CO)NC(=O)[C@@H](NC(=O)[C@H](Cc1ccccc1)NC(=O)[C@@H](NC(=O)CNC(=O)[C@H](CCC(N)=O)NC(=O)C(C)(C)NC(=O)[C@@H](N)Cc1c[nH]cn1)[C@@H](C)O)[C@@H](C)O)C(C)C)[C@@H](C)O)C(C)C)C(=O)N[C@@H](CCC(=O)O)C(=O)N[C@@H](C)C(=O)NCC(=O)O

Target: human GLP-1 receptor (human, UniProt P43220)
Experiment: cell-based or functional assay

Row | Binder | cAMP production EC50
1 | B1 | 0.495 nM
2 | H[Aib]QGTFTSDVSK[αMeF]LDKK([AEEA-AEEA-γGlu-C20 diacid])RAQDFVRWLLE[Aib]G-NH2 [Peptide 453] | 0.17 nM
3 | B2 | 0.133 nM
4 | H[Aib]QGTFTSDVSK[αMeF]LDKK([AEEA-AEEA-γGlu-C20 diacid])RAQDFVRWLLAE-NH2 [Peptide 460] | 0.117 nM
5 | B3 | 0.127 nM
6 | B4 | 0.173 nM
7 | B5 | 0.0395 nM

Target: human glucagon receptor (human, UniProt P47871)
Experiment: cell-based or functional assay

Row | Binder | cAMP production EC50
8 | B1 | 0.151 nM
9 | H[Aib]QGTFTSDVSK[αMeF]LDKK([AEEA-AEEA-γGlu-C20 diacid])RAQDFVRWLLE[Aib]G-NH2 [Peptide 453] | 0.162 nM
10 | B2 | 0.0803 nM
11 | H[Aib]QGTFTSDVSK[αMeF]LDKK([AEEA-AEEA-γGlu-C20 diacid])RAQDFVRWLLAE-NH2 [Peptide 460] | 0.0665 nM
12 | B3 | 0.114 nM
13 | B4 | 0.274 nM
14 | B5 | 0.0892 nM
